# Measured values reported in paper PMC12698695 (Nature Communications, 2025).
# B1: human PANX1 W74A mutant (natural protein)
# chain: MAIAQLATEYVFSDFLLKEPTEPKFKGLRLELAVDKMVTCIAVGLPLLLISLAFAQEISIGTQISCFSPSSFSARQAAFVDSYCWAAVQQKNSLQSESGNLPLWLHKFFPYILLLFAILLYLPPLFWRFAAAPHICSDLKFIMEELDKVYNRAIKAAKSARDLDMRDGACSVPGVTENLGQSLWEVSESHFKYPIVEQYLKTKKNSNNLIIKYISCRLLTLIIILLACIYLGYYFSLSSLSDEFVCSIKSGILRNDSTVPDQFQCKLIAVGIFQLLSVINLVVYVLLAPVVVYTLFVPFRQKTDVLKVYEILPTFDVLHFKSEGYNDLSLYNLFLEENISEVKSYKCLKVLENIKSSGQGIDPMLLLTNLGMIKMDVVDGKTPMSAEMREEQGNQTAELQGMNIDSETKANNGEKNARQRLLDSSC
# Target: the molecule itself
# Assay: cryo-EM structure
protein,measurement,value
B1,binding result,binds
